B1: U14 (ssRNA)
RNA: UUUUUUUUUUUUUU
B2: G14 (ssRNA)
RNA: GGGGGGGGGGGGGG

What was measured:
[1] = target: T1, hPcf11 (CF II subunit);hClp1 (CF II subunit or alone) (human;human, UniProt O94913;Q92989 1-1555;1-425, |); assay: UV cross-linking and immunoprecipitation
[2] = target: T1, hPcf11 (CF II subunit);hClp1 (CF II …); assay: EMSA

T1 sequence (O94913 whole entry, chain 1 of 2): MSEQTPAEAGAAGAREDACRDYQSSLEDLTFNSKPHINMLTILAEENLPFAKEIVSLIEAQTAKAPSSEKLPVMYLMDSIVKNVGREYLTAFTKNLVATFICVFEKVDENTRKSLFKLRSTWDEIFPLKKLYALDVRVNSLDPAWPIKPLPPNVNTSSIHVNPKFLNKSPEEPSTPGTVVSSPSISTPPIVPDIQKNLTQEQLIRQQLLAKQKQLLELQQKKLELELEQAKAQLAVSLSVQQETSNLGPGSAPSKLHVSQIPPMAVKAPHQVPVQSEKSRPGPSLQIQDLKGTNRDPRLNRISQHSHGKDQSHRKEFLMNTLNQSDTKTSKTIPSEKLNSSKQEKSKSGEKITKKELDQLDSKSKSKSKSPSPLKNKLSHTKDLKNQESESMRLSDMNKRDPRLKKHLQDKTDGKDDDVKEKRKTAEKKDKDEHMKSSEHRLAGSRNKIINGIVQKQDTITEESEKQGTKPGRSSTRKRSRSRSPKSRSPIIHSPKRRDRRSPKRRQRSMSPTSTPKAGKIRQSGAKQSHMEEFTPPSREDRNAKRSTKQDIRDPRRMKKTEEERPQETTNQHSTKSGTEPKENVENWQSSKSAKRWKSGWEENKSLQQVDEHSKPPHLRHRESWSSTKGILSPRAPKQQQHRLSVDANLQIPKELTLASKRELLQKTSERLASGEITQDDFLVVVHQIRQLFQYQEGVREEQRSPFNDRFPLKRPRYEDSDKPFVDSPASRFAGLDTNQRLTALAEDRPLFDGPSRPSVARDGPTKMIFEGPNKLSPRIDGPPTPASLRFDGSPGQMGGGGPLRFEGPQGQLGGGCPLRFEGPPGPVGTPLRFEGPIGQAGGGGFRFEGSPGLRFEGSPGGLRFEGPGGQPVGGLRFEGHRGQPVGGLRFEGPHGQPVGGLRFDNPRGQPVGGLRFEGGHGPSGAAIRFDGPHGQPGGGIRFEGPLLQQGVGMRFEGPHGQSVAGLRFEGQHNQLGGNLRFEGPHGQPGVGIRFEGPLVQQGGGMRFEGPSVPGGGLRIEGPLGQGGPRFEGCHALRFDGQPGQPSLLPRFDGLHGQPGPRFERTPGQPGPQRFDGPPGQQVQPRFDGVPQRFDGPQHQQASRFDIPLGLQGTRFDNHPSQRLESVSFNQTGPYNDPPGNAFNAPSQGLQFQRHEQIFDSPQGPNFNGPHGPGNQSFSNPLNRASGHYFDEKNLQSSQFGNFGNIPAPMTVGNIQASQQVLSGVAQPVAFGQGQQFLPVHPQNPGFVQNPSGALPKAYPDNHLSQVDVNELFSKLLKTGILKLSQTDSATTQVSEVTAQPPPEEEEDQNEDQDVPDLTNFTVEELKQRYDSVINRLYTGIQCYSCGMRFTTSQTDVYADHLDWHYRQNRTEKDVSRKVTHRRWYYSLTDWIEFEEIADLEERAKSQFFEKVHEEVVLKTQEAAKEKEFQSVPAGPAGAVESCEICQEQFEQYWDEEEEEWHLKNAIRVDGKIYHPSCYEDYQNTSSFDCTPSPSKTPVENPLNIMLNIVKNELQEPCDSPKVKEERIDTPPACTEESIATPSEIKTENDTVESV
T1 sequence (Q92989 whole entry, chain 2 of 2): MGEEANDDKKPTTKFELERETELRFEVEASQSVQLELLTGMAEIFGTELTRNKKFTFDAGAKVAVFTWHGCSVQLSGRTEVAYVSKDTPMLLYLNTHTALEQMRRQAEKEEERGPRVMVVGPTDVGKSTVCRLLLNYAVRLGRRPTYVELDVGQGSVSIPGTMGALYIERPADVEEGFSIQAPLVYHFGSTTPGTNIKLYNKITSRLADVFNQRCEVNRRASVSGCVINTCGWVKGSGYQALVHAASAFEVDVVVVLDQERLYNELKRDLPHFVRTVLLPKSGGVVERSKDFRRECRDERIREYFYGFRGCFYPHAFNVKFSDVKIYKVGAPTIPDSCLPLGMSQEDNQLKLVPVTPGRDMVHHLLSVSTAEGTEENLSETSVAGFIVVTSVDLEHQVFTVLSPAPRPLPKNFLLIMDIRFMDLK

Binder | binding result [1] | Kd [2] [nM]
B1 | binds | –
B2 | – | ~2

— paper PMC6239180
